Data taken from patent publication US20220298244A1 (BEIJING MABWORKS BIOTECH, published 2022).

Legend:
monkey PD-L1 (ECD)-his = target: T1, monkey PD-L1 (ECD)-his (monkey, UniProt Q9NZQ7 19-238 (human entry)); assay: ELISA on coated monkey PD-L1 (ECD)-his
T1 construct: Bought protein; also called Cat #:90251-C08H, Sino Biological; not shown: His tag
Experimental: (§1) Species-cross-reactivities of the anti-PD-L1 mAbs to monkey or mouse PD-L1s were further assessed by direct ELISA. Briefly, 96-well ELISA plates were coated with 500 ng/ml monkey PD-L1 (ECD)-his (Cat #:90251-C08H, Sino Biological, CN) or mouse PD-L1(ECD)-his (Cat #:50010-M08H, Sino Biological, CN), 100 μl per well, then added and incubated with 100 μl serially diluted anti-PD-L1 antibodies (starting at 40 μg/ml). The plates were then added and incubated with Goat anti-human IgG conjugated with HRP (Cat #:31410, Thermal, US) for 1 hour at room temperature. Plates were developed with freshly prepared Ultra-TMB (Cat #:555214, BD, US) for 5 minutes at room temperature, and absorbance was read on a SpectraMax^R i3X reader (Molecular Devies, US) at 450 nm.

mouse PD-L1(ECD)-his = target: T2, mouse PD-L1(ECD)-his (mouse, UniProt Q9EP73 19-239); assay: direct ELISA on coated mouse PD-L1(ECD)-his
T2 construct: Bought protein; also called mouse PD-L1-his; Cat #:50010-M08H, Sino Biological; not shown: His tag
Experimental: as §1

[1] = target: T3, human PD-L1 expressed on HEK293A cells (human, UniProt Q9NZQ7 19-290); assay: FACS blocking assay on HEK293A/human PD-L1 cells; blocked ligand PD1-hFc (protocol of Example 6)
T3 construct: Full-length cDNA expressed stably; also called HEK293A/human PD-L1 cells; HEK293A/human PD-L1
Experimental: Briefly, 10⁵ HEK293A/human PD-L1 cells in 100 μl culture medium were seeded onto each well of 96-well plates, to which added 50 μl serially diluted anti-PD-L1 antibodies. After incubated at 4° C. for 1 hour, the plates were washed 3 times with PBST. […] After incubation at 4° C. for 1 hour, the plates were washed with PBST for 3 times, and added with PE coupled Goat Anti-human IgG (Cat #:PAI-86078, Thermofisher, US) diluted 500×. After incubation at 4° C. for 1 hour, the plates were washed with PBST for 3 times and then cell fluorescence was monitored using a FACS machine (BD).

[2] = target: T3, human PD-L1 expressed on HEK293A cells; assay: FACS on HEK293A/human PD-L1 cells, serially diluted antibody (protocol of Example 4)
Experimental: (§2) To determine whether the anti-PD-L1 antibodies bound to human, monkey or mouse PD-L1s expressed on HEK293A cells, a cell-based binding assay was performed by FACS using the HEK293A cells stably overexpressing human, monkey and mouse PD-L1s respectively as generated in Example 1. Briefly, 10⁵ HEK293A cells in 100 μl culture medium were seeded onto each well of the 96-well plates, to which added 50 μl serially diluted anti-PD-L1 antibodies. After incubated at 4° C. for 1 hour, plates were washed 3 times with PBST. Then, APC coupled Goat Anti-Mouse IgG (Cat #:405308, BioLegend, US) diluted 500× was added to the plates. After incubation at 4° C. for 1 hour, the plates were washed with PBS for 3 times and then cell fluorescence was monitored using a FACS machine (BD).

human PD-L1 (ECD)-his = target: T4, human PD-L1 (ECD)-his (human, UniProt Q9NZQ7 19-238); assay: ELISA on coated human PD-L1 (ECD)-his
T4 construct: Bought protein; it is not tied to the bought construct by a sentence of its own; also called recombinant human PD-L1(ECD)-his; Cat #:10084-H08H, Sino Biological; not shown: His tag
Experimental: The chimeric anti-PD-L1 antibodies were further characterized for their abilities of binding to human PD-L1, monkey PD-L1 and mouse PD-L1. Briefly, ELISA plates were coated with 500 ng/ml human PD-L1 (ECD)-his (Cat #:10084-H08H, Sino Biological, CN), 100 μl per well, at 4° C. overnight. The wells were blocked with 200 μl blocking buffer (PBS containing 1% BSA, 1% goat serum and 0.05% Tween 20) for 2 hours at room temperature, added and incubated with 100 μl serially diluted anti-PD-L1 antibodies (starting at 40 μg/ml) for 1 hour at room temperature. The plates were washed for 3 times with PBST (PBS+0.05% Tween 20), added with Goat-anti-human IgG-HRP (Cat #:31410, Thermal, US) diluted 5000×, and incubated for 1 hour at room temperature. Plates were developed with freshly prepared Ultra-TMB (Cat #:555214, BD, US) for 5 minutes at room temperature. Absorbance was read on a SpectraMax^R i3X reader (Molecular Devies, US) at 450 nm.

[3] = target: T5, monkey PD-L1 expressed on HEK293A cells (monkey (cynomolgus), UniProt Q9NZQ7 19-290 (human entry)); assay: FACS on HEK293A/monkey PD-L1 cells, serially diluted antibody (protocol of Example 4)
T5 construct: Full-length cDNA expressed stably; also called HEK293A/monkey PD-L1 cells; HEK293A/monkey PD-L1
Experimental: as §2

[4] = target: T6, mouse PD-L1 expressed on HEK293A cells (mouse, UniProt Q9EP73 19-290); assay: FACS on HEK293A/mouse PD-L1 cells, serially diluted antibody (protocol of Example 4)
T6 construct: Full-length cDNA expressed stably; also called HEK293A/mouse PD-L1 cells; HEK293A/mouse PD-L1
Experimental: as §2

T3 sequence (Q9NZQ7 19-290 limits assumed): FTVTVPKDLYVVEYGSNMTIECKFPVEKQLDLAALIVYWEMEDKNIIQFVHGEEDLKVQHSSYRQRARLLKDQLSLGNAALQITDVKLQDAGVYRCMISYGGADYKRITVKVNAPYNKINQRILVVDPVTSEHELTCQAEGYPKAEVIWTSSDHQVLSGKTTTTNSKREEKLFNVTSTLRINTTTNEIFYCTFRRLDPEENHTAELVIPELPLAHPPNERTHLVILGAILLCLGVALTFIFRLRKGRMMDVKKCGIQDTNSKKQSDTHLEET
T1 sequence (Q9NZQ7 other isoform, or with tags, fused parts or gaps): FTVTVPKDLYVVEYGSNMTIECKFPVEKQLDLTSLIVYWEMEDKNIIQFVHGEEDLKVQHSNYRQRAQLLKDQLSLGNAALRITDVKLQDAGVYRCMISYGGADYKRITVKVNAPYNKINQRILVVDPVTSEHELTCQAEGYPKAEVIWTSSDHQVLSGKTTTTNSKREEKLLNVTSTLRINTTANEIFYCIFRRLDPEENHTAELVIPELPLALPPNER
T4 sequence (Q9NZQ7 19-238): as the sequence (Q9NZQ7 other isoform, or with tags, fused parts or gaps) above, with T33A, S34A, N62S, Q68R, R82Q, L173F, A185T, I192T, L215H counted along it
T6 sequence (Q9EP73 19-290 limits assumed): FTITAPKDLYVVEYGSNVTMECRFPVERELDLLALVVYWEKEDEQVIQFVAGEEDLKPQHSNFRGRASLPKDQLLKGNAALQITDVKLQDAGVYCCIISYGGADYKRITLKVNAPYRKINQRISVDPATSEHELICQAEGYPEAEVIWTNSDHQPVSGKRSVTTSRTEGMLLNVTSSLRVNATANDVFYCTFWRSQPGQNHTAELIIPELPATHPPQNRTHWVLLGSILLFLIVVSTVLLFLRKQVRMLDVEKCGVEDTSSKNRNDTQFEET
T2 sequence (Q9EP73 19-239): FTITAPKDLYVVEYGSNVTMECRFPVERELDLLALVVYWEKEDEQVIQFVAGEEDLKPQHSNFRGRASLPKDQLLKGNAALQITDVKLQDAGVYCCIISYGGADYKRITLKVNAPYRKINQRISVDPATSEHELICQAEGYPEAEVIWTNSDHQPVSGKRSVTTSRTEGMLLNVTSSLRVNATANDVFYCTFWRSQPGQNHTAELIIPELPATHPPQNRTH
T5 sequence (Q9NZQ7 other isoform, or with tags, fused parts or gaps limits assumed): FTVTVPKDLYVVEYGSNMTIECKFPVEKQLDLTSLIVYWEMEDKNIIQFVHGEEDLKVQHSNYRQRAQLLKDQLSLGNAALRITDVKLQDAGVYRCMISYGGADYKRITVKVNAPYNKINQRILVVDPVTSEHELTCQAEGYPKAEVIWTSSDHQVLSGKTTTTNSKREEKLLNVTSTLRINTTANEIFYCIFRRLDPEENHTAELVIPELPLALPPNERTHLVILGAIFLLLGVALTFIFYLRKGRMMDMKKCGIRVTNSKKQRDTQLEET

EC50 (monkey PD-L1 (ECD)-his) | IC50 (read off the curve) [1] | EC50 (read off the curve) [2] | EC50 (human PD-L1 (ECD)-his) | EC50 (read off the curve) [3] | Binder | binding result (mouse PD-L1(ECD)-his) | binding result [4]
2.05 nM | ~0.03 µg/mL | ~0.05 µg/mL | 0.348 nM | ~0.04 µg/mL | chimeric 56E5 antibody (antibody, human IgG1, kappa, N297A, V domains shown) VH: EVQLQESGPGLAKPSQTLSLTCSVTGYSITSDYWNWIRKFPGNKLEYMGYISYTGSTYYNPSLKSRISITRDTSKNQYYLQLNSVTTEDTATYYCARYRDWDVRAMDYWGQGTSVTVSS VL: DIVMTQSPSSLTVTAGEKVTMNCKSSQSLLISGNQKNFLTWYQQKPGQPPKLLIYWASTRESGVPDRFTGSGSGTDFTLTISSVQAEDLAVYYCQNDFGFPFTFGSGTKLEIKR | no binding (tested: starting at 40 µg/ml) | no binding (tested: LOG Con. about 4.6 (about 40000 ng/ml))
0.172 nM | ~0.2 µg/mL | ~0.1 µg/mL | 0.0456 nM | ~0.1 µg/mL | chimeric 3C2 antibody (antibody, human IgG1, kappa, N297A, V domains shown) VH: QVQLNQSGPELMKAGTSVKISCKASGYSFTDYHVNWVKQRPGQGLEWIGWIFPGSGRTFYTDKFKGKATLTVDLSFTTAYIMLNSLTSEDSAVYFCATDYGTSGYGLVYWGQGTSVTVSS VL: DIQMTQSSSYLSVSLGGRVTISCKASDRINNWLAWYQQKPGNAPRLLISGATSLETGVPSRFSGSGSGKDYTLSITSLQTEDVAVYYCQQYWNIPFTFGSGTKLEIKR | no binding (tested: starting at 40 µg/ml) | no binding (tested: LOG Con. about 4.6 (about 40000 ng/ml))
